Biological target: T1, T-Alb-VFP (human, UniProt P02768 25-609)
T1 construct: mature;domain: transmembrane domain; also called tethered Alb
Experiment: FRET (donor photobleaching), HEK293T cells

B1: CiHv1-TFP (other)
chain: MEGDNCNKSRHKSHNMINPNYASVRCTQPLPSVIQLRSRNKMIGITEDPSSDSEPVSSNQPLLLTNLSYEVHTFNDNNNHERPAPQEQSTQNTMISMQSEQKSDRFTASNLGMFQYMKFEIGEDGDDHEEEAILTNREKLRHILHSKPIHVAIIVLVVLDSFLVVGELLIDLKVIIVPHGNPAPEILHGFSLSILSIFMVEIALKIIADHRHFIHHKVEVLDAVVVVISFGVDIALIFVGESEALAAIGLLVILRLWRVFRIINGIIVTVKTKADDRVHEIKKKNSELELQIHNLEEKLSQKEQDMSRLHEILRCNNIDIPPTVPLTTSVQIHSTTTASADV
notes: whole, on cells
binding result: no binding

Reference: US20240254166A1 (University of California, published 2024)
